Assay results as given in the RNAGym collection of RNA variant scans (doi:10.1073/pnas.2313332121).

B1: TPR t1 (parent)
chain: GACCAAUCUGCCCUCAGAGCUCGAGAACAUCUUCGGAUGCAGAGGAGGCAGGCUUCGGUGGCGCGAUAGCGCCAACGUCCUCAACCUCCAAUGCAUCCCACCACAUGAUGAUGCCUGAAGAGCCUUGGUUUUUUG

Variants of: B1
Experiment: polymerase ribozyme fitness, log enrichment relative to wild type (log ratio); higher = more active; in vitro selection for triplet polymerase activity
Procedure, shortened: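 Genotype fitness is the logarithm of its enrichment divided by wild-type enrichment, using inverse-variance-weighted averages of replicates. That logarithm is base 2. Enrichment was measured by Illumina sequencing of input and output libraries from one triplicate in vitro selection round, with frozen incubation at −7 °C, on PCR-built, transcribed mutant libraries of each subunit of a heterodimeric triplet polymerase ribozyme, retaining genotypes with ≥10 input reads and ≥1 read per output.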

Going from GACCAAUCUGCCCUCAGAGCUCGAGAACAUCUUCGGAUGCAGUGGAGGCAGGCUUCGGUGGCGCGAUAGCGCCAACGUCCUCAACCUCCAAUGCAUCCCACCACAUGAUGAUGCCUGAAGCGCCUUGGUUUUUUG [A43U A121C] to GACCAAUCUGCCCUCAGAGCUCGAGAACAUCUUCGGAUGCAGUGGAGGCAGGCUUCGGUGGCGCGAUAGCGCCAACGUCCUCAACCUCCAAUGCAUCCCACCACAUGAUGAUGCCUGAAGUGCCUUGGUUUUUUG [A43U A121U], the “polymerase ribozyme fitness (log ratio)” value rises from 0.506 to 1.26.

Going from GACCAAUCUGCCCUCAGAGCUCGAGAACAUCUUCGGAUGCAGUGGAGGCAGGCUUCGGUGGCGCGAUAGCUCCAACGUCCUCAACCUCCAGUGCAUCCCACCACAUGAUGAUGCCUGAAGAGCCUUGGUUUUUUG [A43U G71U A91G] to GACCAAUCUGCCCUCAGAGCUCGAGAACAUCUUCGGAUGCAGUGGAGGCAGGCUUCGGGGGCGCGAUAGCGCCAACGUCCUCAACCUCCAAUGCAACCCACCACUUGAUGAUGCCUGAAGCGCCUUGGUUUUUUG [A43U U59G U96A A105U A121C], the “polymerase ribozyme fitness (log ratio)” value falls from -2.96 to -4.79.

Going from GACCAAUCUGCCCUCAGAGCUCGAGAACAUCUUCGGAUGCAGUGGAGGCAGGCUUCGGUGGCGCGAUAGCGCCAACAUCCUCAACCUCCAAUGCAUCCCACCACAUGAUGAUGCCUGAAAAGCCUUGGUUUUUGG [A43U G77A G120A U134G] to GACCAAUCUGCCCUCAGAGCUCGAGAACAUCUUCGGAUGCAGAAGUGGCAGGCUUCGGUGGCGCGAUAGCGCCAACGUCCUCAACCUCCAAUUCAUCCCACCAUAUGAUGAUGCCUGAAGAGCCUUGGUUUUUUG [G44A A46U G93U C104U], the “polymerase ribozyme fitness (log ratio)” value falls from -0.215 to -2.25.

Compared with GACCAAUCUGCCCUCAGAGCUCGAGAACAUCUUCGGAUGCAGUGGAGGAAGGCUUCGGUGGCGCGAUAGCGCCAACGUCCUCAACCUCCAAUGCAUCCCACCACAUGAUGAUGGCUGAAGAGCCUUGGUUUUUUG [A43U C49A C114G], GACCAAUCUGCCCUCAGAGCUCGAGAACAUCUUCGGAUGCAGUGGAGGCAGGCUUCGGUGGCCCGAUAGCGCCAACGUCCUCAACCUCCAAUGCAUCCCUCCACAUGAUGAUGCCUGAAGAGCGUUGGUUUUUUG [A43U G63C A100U C124G] is lower in “polymerase ribozyme fitness (log ratio)” value: -1.78 for the first, -2.24 for the second.

Going from GACCAAUCUGCCCUCAGAGCUCGAGAACAUCUUCGGAUGCAGUGGAGGCAGGCUUCGGUGGCGCGAUAGCGCCAACGUCCUCAACCUCCAAUUCAUCCCACCACAUGAUGAUGCCUGAAGAGCCUUGGUUUUUUG [A43U G93U] to GACCAAUCUGCCCUCAGAGCUCGAGAACAUCUUCGGAUGCAGUGGAGGCAGGGUUCGGUGGCGCGAUAGCGCCAACGUCCUCAACCUCCAAUGCAUCCCACCACAUGAUGAUGCCUGAAGAGCCUUGGUUUUUUG [A43U C53G], the “polymerase ribozyme fitness (log ratio)” value rises from -2.7 to -1.38.

Going from GACCAAUCUGCCCUCAGAGCUCGAGAACAUCUUCGGAUGCAGUGGAGGCAGGCUUCGGUGGCGCGAUAGGGCCAACGUCCUCAACCUCCAAUGCAUCCCACCACAUGAUGAUGCCUGAAGAGCCUUGGUUUUUUG [A43U C70G] to GACCAAUCUGCCCUCAGAGCUCGAGAACAUCUUCGGAUGCAGUGGAGGCAGGCUUCGGUGGCGCGAUAGCGCCAACGUCCUCAACCUCCAAUGCAUACCACCACAUGAUGAUGCCUGAAGAGCCUUGGUUUUUUG [A43U C97A], the “polymerase ribozyme fitness (log ratio)” value falls from -4.41 to -7.59.

First: GACCAAUCUGCCCUCAGAGCUCGAGAACAUCUUCGGAUGCAGUGGAGGCAGGCUUCGGUGGCGCGAUAGCGCCAAAGUCCUCAACCUCCAAUGCAUCCCACCACAUGAUGAUGCCUGAAGAGCCUUGGUUUUUUG [A43U C76A]
Second: GACCAAUCUGCCCUCAGAGCUCGAGAACAUCUUCGGAUGCAGUGGAGGCAGGCUUCGGUGGCGCGAUAGCGCCAACGUCCUCAACCUCCAAUGCAUCCCACCACAAGAUGAUGCCUGUAGAGCCUUGGUUUUUUG [A43U U106A A118U]
The “polymerase ribozyme fitness (log ratio)” value of the first is lower: -2.98 for the first, -1.2 for the second.

First: GACCAAUCUGCCCUCAGAGCUCGAGAACAUCUUCGGAUGCAGUUGAGGCAGGCUUCGGUGGCGCGAUAGCGCCAACGUCCUCAACCUCCAAUGCAUCCCACCACAUGAUGAUGCCUGAAGAGCCUUGGUUUUUUG [A43U G44U]
Second: GACCAAUCUGCCCUCAGAGCUCGAGAACAUCUUCGGAUGCAGUGGAGGCAGGCUUCGGUGGCGCGAUAGCGCCAACGUCCUCAACCUCCAAUCCAUCCCACCACAUGAUGAUGCCUCAAGAGCCUUGGUUUUUUG [A43U G93C G117C]
The “polymerase ribozyme fitness (log ratio)” value of the first is higher: -1.67 for the first, -4.65 for the second.

First: GACCAAUCUGCCCUCAGAGCUCGAGAACAUCUUCGGAUGCAGUGGAGGCAGGCUUCGGUGUCGCGAUAGCGCCAACGUCCUCAACCUCCAAUUCAUCCCACCACAUGAUGAUGCCUGAAGAGCCUUGGUUUUUUG [A43U G61U G93U]
Second: GACCAAUCUGCCCUCAGAGCUCGAGAACAUCUUCGGAUGCAGUGGAGGCAGGCUCCGGUGGCGCGAUAGCGCCAACGUCCUCAACCUCCAACGCAUCCCACCACAUGAUGAUGCCUGAAGAGCCUUGGUUUUUUG [A43U U55C U92C]
The “polymerase ribozyme fitness (log ratio)” value of the first is higher: -1.76 for the first, -2.54 for the second.

Compared with GACCAAUCUGCCCUCAGAGCUCGAGAACAUCUUCGGAUGCAGUGGAGGCAGGCUUCGGUGGCGCGAUAGCGCCAACGUCCUCAACCUCCAAUGCAUCCCACCACAUGAUGAUGCCUGAAGAGCAUUGGUUUUUUG [A43U C124A], GACCAAUCUGCCCUCAGAGCUCGAGAACAUCUUCGGAUGCAGUGGAGGCAGGCUUCGGUGGCGCGAUACCGCCAACGUCCUCAACCUCCAAUGCAUCCCACCACAUGAUGAUGCCUGAAGAGCCUUGGUUUUUUG [A43U G69C] is lower in “polymerase ribozyme fitness (log ratio)” value: 0.127 for the first, -2.32 for the second.

With GACCAAUCUGCCCUCAGAGCUCGAGAACAUCUUCGGAUGCAGUGGAGGCAGGCUUCGGUGGCGCGAUAGCGCCAACGUCCUCAACCUCCAAUGCAUCCCACCACAUGAUUAUGCCUGAAGAGCCUUGGUUUUUUG [A43U G110U] the “polymerase ribozyme fitness (log ratio)” value was -3.52.
